Biological target: mixture of gliadins (SIGMA Cat. No. G3375)

B1: neprilysin from Rothia mucilaginosa ATCC 25296 (RefSeq ZP_05367591) (protein)
chain: MTTNSGITKEWVDETVKPGDDFFRHVNGKWLATHEIPADRPKDGGLYTLRDNAEKHVRELVEKIAKEQPESRIGALYNSFMDVEKIEADGLEPLLKEIAPILNSATPSHLAVTLALLSRAGLPQLFAWYTSNDPKDPKNYTFFLYQSGLGLPDESYYREEKHEAACAAYVEHIARMFQLTGLAEGFGLTPEQAAQLVFTHESELARLHWNVVENRDAEATYNPYQATELDEKFPGFPFSQWLLALGADPETLGQVIVAQPSFFEGAAKLFTSIPLMSWKLWAVWTVLRSRAPFMYDELVQESFNFYGKTLSGTQQIRERWKRGVGAVEKALGEEIGQEYVAVHFPPSHKEKMLVLVGNLLEAYRESIESLDWMTEATRQKALEKLSKFVTKIGYPDKWRDFSALELVPGDLFENLRRTGAFDADWLIARKGQPVDKAEWLMTPQTVNAYYMPPANEIVFPAAILQPPYFNPDADDAANYGNIGMIIGHEIGHGFDDQGSRYDGDGKLESWWTEEDYAKFKERTAALVEQYNAYVPVGLDPKFHVNGELTLGENIGDLAGMSIALKAYRLALKKQGIESLADAPVIDGMTGIQRFFFSNARGWCTKSRPQHAEVMISVDPHSPDEFRVNGVVRNIDEFYEAFGVSEGDALYLAPEERVRIW
gliadin zymography (proteolytic activity): The clear bands observed in the zymogram gel confirmed proteolytic activity towards gliadin
